{
  "source": "patent US20230393135A1",
  "key": {"[1]": {"target": "SARS-CoV-2 S protein trimer with the K417N/E484K/N501Y mutations (present in the B.1.351 variant) (SARS-CoV-2) (UniProt P0DTC2)"}, "[2]": {"target": "SARS-CoV-2 S protein trimer with the Δ69-70 Y453F mutations (present in the mink variant) (SARS-CoV-2) (UniProt P0DTC2)"}},
  "data": [
    {"substance": "REGN10933 neutralizing antibody", "values": [
      {"measurement": "fold loss in IC80 activity", "setting": "[1]", "result": 61, "unit": "fold"},
      {"measurement": "fold loss in IC80 activity", "setting": "[2]", "result": 67, "unit": "fold"}
    ]}
  ]
}
